Data from paper PMC5286483, “Effect of R119G Mutation on Human P5CR1 Dynamic Property and Enzymatic Activity” (BioMed Research International, 2017).
Residue numbers refer to the chain shown, from its start. Numbers in names are those of the source.

B1: Human P5CR1 R119G mutant (enzyme, UniProt P32322 1-319, looked up)
chain: MSVGFIGAGQLAFALAKGFTAAGVLAAHKIMASSPDMDLATVSALRKMGVKLTPHNKETVQHSDVLFLAVKPHIIPFILDEIGADIEDRHIVVSCAAGVTISSIEKKLSAFRPAPRVIGCMTNTPVVVREGATVYATGTHAQVEDGRLMEQLLSSVGFCTEVEEDLIDAVTGLSGSGPAYAFTALDALADGGVKMGLPRRLAVRLGAQALLGAAKMLLHSEQHPGQLKDNVSSPGGATIHALHVLESGGFRSLLINAVEASCIRTRELQSMADQEQVSPAAIKKTILDKVKLDSPAGTALSPSGHTKLLPRSLAPAGKD
notes: Pyrroline-5-carboxylate reductase 1 (P5CR1), human, encoded by PYCR1, with the ARCL-associated mutation R119G; monomer molecular weight printed as 33.3 kDa; Made by PCR mutagenesis of WT-pET28a-P5CR1; also called R119G P5CR1; pET28a-P5CR1-R119G; source: E. coli BL21 (DE3), inclusion bodies, denatured in 6 M urea, purified (Ni2+-chelating column), renatured, SEC
B2: Human P5CR1 R119H mutant (enzyme, UniProt P32322 1-319, looked up)
chain: B1 chain with G119H
notes: Pyrroline-5-carboxylate reductase 1 (P5CR1), human, encoded by PYCR1, with the mutation R119H; source: expressed mostly as inclusion bodies, purified with a Ni2+-chelating column; plasmid constructed 'by the previous method'

Legend:
[1] = biological target: the molecule itself; assay: SEC; Superdex-75 column (10/300 mm), 20 mM Caps, pH 9.4, 0.5 M NaCl, 0.5 mL/min; refolded R119G mutant
[2] = biological target: the molecule itself; assay: SEC; R119H mutant (Fig. S4); column and buffer not stated

Protein | stoichiometry N [1] | stoichiometry N [2]
B1 | 2 | 
B2 |  | 2
